Results reported in the supplement of paper PMC7877785.
± gives the uncertainty stated by the source.

Assay: self-splicing fitness, log relative to wild type (ln ratio); higher = more splicing; Tetrahymena group I intron in knt gene, E. coli kanamycin selection, DiMSum; sequences stand for … in CUCUCU…GGAGGGAAAAGUUAUCAGGCAUGCACCUGGUAGCUAGUCUUUAAACCAAUAGAUUGCAUCGGUUUAAAAGGCAAGACCGUCAAAUUGCGGGAAAGGGGUCAACAGCCGUUCAGUACCAAGUCUCAGGGGAAACUUUGAGAUGGCCUUGCAAAGGGUAUGGUAAUAAGCUGACGGACAUGGUCCUAACCACGCAGCCAAGUCCUAAGUCAACAGAUCUUCUGUUGAUAUGGAUGCAGUUCACAGACUAAAUGUCGGUCGGGGAAGAUGUAUUCUUCUCAUAAGAUAUAGUCGGACCUCUCCUUAAUGGGAGCUAGCGGAUGAAGUGAUGCAACACUGGAGCCGCUGGGAACUAAUUUGUAUGCGAAAGUAUAUUGAUUAGUUUUGGAGUACUCGUGGUCG
Summary of the method: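 Pooled colonies went to amplicon sequencing on an Illumina HiSeq 2500 after six replicate transformations. The plates were LB agar with 100 μg/mL carbenicillin, 50 μM IPTG and 0.2% rhamnose, with or without 25 μg/mL kanamycin, incubated overnight at 37°C or 30°C. The E. coli BL21(DE3) library had all eight P1ex-region intron nucleotides randomised, the intron placed in the knt kanamycin-resistance gene on pET-22b(+). DiMSum fitness is the error-weighted combination of replicate fold changes, kanamycin against none, normalised to wild type.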

| Sequence | self-splicing fitness (ln) (30 °C) | self-splicing fitness (ln) (37 °C) |
| --- | --- | --- |
| AGCAAGCAAUAUUACGUUCA | -0.99 ± 0.081 | -0.464 ± 0.1 |
| AGCAAGCAAUAUUACGUUUU | -2.46 ± 0.077 | -1.71 ± 0.09 |
| AGCCAGCAAUAUUACGAAAC | -3.51 ± 0.48 | -1.38 ± 0.26 |
| AGCCAGCAAUAUUACGAAGG | -3.89 ± 0.41 | -2.92 ± 0.31 |
| AGCCAGCAAUAUUACGACGG | -4.18 ± 0.42 | -1.35 ± 0.25 |
| AGCCAGCAAUAUUACGAGCC | – | -0.75 ± 0.32 |
| AGCCAGCAAUAUUACGCAAA | -2.91 ± 0.34 | -2.36 ± 0.2 |
| AGCCAGCAAUAUUACGCAGG | -3.44 ± 0.14 | -2.62 ± 0.18 |
| AGCCAGCAAUAUUACGCAUG | -2.87 ± 0.11 | -2.2 ± 0.12 |
| AGCCAGCAAUAUUACGCGAU | -1.24 ± 0.14 | -2.93 ± 0.32 |
| AGCCAGCAAUAUUACGCGUA | -1.99 ± 0.13 | -1.44 ± 0.14 |
| AGCCAGCAAUAUUACGGAGU | -2.69 ± 0.19 | -1.66 ± 0.14 |
| AGCCAGCAAUAUUACGGGGC | -3.88 ± 0.15 | -3.13 ± 0.14 |
| AGCCAGCAAUAUUACGUCCU | -0.436 ± 0.071 | 0.142 ± 0.078 |
| AGCCAGCAAUAUUACGUCGU | -1.75 ± 0.072 | -1.58 ± 0.086 |
| AGCCAGCAAUAUUACGUGCG | -0.906 ± 0.077 | -0.256 ± 0.087 |
| AGCGAGCAAUAUUACGAACA | -2.63 ± 0.23 | -1.89 ± 0.2 |
| AGCGAGCAAUAUUACGACGA | -1.13 ± 0.22 | -2.2 ± 0.31 |
| AGCGAGCAAUAUUACGAUAA | – | -2.17 ± 0.24 |
| AGCGAGCAAUAUUACGAUAC | -3.47 ± 0.47 | -2.29 ± 0.39 |
| AGCGAGCAAUAUUACGAUAG | -3.64 ± 0.43 | -1.76 ± 0.35 |
| AGCGAGCAAUAUUACGAUAU | -4.12 ± 0.29 | -1.99 ± 0.19 |
| AGCGAGCAAUAUUACGAUUC | -1.93 ± 0.16 | -2.02 ± 0.27 |
| AGCGAGCAAUAUUACGAUUG | -4.39 ± 0.42 | -1.52 ± 0.34 |

| Sequence | self-splicing fitness (ln) (30 °C) | self-splicing fitness (ln) (37 °C) |
| --- | --- | --- |
| AGCGAGCAAUAUUACGCAUC | -2.51 ± 0.36 | -2.33 ± 0.33 |
| AGCGAGCAAUAUUACGCCUU | -1.94 ± 0.25 | -2.62 ± 0.48 |
| AGCGAGCAAUAUUACGCGUA | -2.95 ± 0.34 | -1.7 ± 0.18 |
| AGCGAGCAAUAUUACGGCAU | -1.45 ± 0.12 | -0.286 ± 0.14 |
| AGCGAGCAAUAUUACGUAAA | -2.53 ± 0.18 | -2.03 ± 0.31 |
| AGCGAGCAAUAUUACGUACU | -0.777 ± 0.088 | -0.674 ± 0.092 |
| AGCGAGCAAUAUUACGUUCC | – | -1.3 ± 0.24 |
| AGCUAGCAAUAUUACGAACU | -0.899 ± 0.12 | 0.179 ± 0.16 |
| AGCUAGCAAUAUUACGACAC | -2.07 ± 0.15 | -1.11 ± 0.16 |
| AGCUAGCAAUAUUACGAGCU | -2.65 ± 0.19 | -1.92 ± 0.21 |
| AGCUAGCAAUAUUACGAGUG | -0.877 ± 0.066 | -0.529 ± 0.084 |
| AGCUAGCAAUAUUACGAUAA | -2.14 ± 0.12 | -1.12 ± 0.14 |
| AGCUAGCAAUAUUACGCCUA | -0.93 ± 0.14 | -0.324 ± 0.13 |
| AGCUAGCAAUAUUACGCCUG | -1.6 ± 0.13 | -1.55 ± 0.17 |
| AGCUAGCAAUAUUACGCUAU | -2.89 ± 0.21 | -1.42 ± 0.18 |
| AGCUAGCAAUAUUACGCUGG | -3.58 ± 0.2 | -2.31 ± 0.3 |
| AGCUAGCAAUAUUACGCUUG | -3.96 ± 0.26 | -2.9 ± 0.25 |
| AGCUAGCAAUAUUACGGAAU | -1.13 ± 0.16 | -2.07 ± 0.27 |
| AGCUAGCAAUAUUACGGAGA | -2.24 ± 0.22 | -3.14 ± 0.37 |
| AGCUAGCAAUAUUACGGAUC | -1.26 ± 0.12 | -1.54 ± 0.16 |
| AGCUAGCAAUAUUACGGCAU | -0.602 ± 0.11 | -0.476 ± 0.14 |
| AGCUAGCAAUAUUACGGCCG | -0.198 ± 0.15 | 0.841 ± 0.19 |
| AGCUAGCAAUAUUACGGGCA | -0.728 ± 0.12 | -0.379 ± 0.14 |
| AGCUAGCAAUAUUACGGGGA | -2.22 ± 0.17 | -1.68 ± 0.14 |
